Test results from patent US20060276386A1 (published 2006).

Molecular target: T1, C-terminally FLAG-tagged full length UCH-L5 (mouse, UniProt Q9WUP7 1-329)
T1 construct: range 1-329; Co-expressed in HEK-293 cells and immunoprecipitated with an anti-FLAG monoclonal; also called UCH-L5 FLAG
T1 sequence: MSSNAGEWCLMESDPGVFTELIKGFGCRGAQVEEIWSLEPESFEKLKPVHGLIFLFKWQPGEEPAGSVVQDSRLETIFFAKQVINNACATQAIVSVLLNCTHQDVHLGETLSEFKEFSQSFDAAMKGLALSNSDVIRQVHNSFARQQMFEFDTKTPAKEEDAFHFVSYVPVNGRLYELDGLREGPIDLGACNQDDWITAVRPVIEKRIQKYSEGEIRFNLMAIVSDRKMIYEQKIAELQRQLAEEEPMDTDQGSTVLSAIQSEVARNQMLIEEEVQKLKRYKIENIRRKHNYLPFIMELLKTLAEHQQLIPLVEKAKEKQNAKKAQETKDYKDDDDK
Test: co-immunoprecipitation: anti-FLAG IP, anti-HA western blot, HEK-293 lysates
Description: C-terminally FLAG®-tagged UCH-L5 or UCH-L5ΔC were co-expressed in human embryonic kidney (HEK)—293 cells with N-terminally HA-tagged Smad proteins.
Referring to FIG. 3, HEK-293 cells were transfected with 20 μg of DNA construct directing the expression of UCH-L5 FLAG or UCH-L5ΔC FLAG and 20 μg of DNA construct expressing one of: HA-Smad 3₁₋₃₈₅; HA-Smad3₁₋₂₄₀; or HA-Smad3₁₋₄₄. Lysates of the cells were prepared by a standard detergent lysis method, using 1% Triton X-100 and then immunoprecipitated with an anti-FLAG monoclonal. The precipitated proteins were then subjected to SDS-PAGE.
For comparison, a blot of the same samples was then probed with a haemagglutinin-specific 1st antibody.

B1: N-terminally HA-tagged Smad3 residues 1-144 (other)
chain: MSSILPFTPPIVKRLLGWKKGEQNGQEEKWCEKAVKSLVKKLKKTGQLDELEKAITTQNVNTKCITIPRSLDGRLQVSHRKGLPHVIYCRLWRWPDLHSHHELRAMELCEFAFNMKKDEVCVNPYHYQRVETPVLPPVLVPRHT
notes: not shown: haemagglutinin (HA) tag, N-terminal
- binding result: no binding
